Assay results as given in article PMC5844954.

B1: human GFP-Insc^ASYM-ΔαB (Insc^ASYM lacking residues 62-191) (domain or fragment)
chain: MMALPGGRHLDSVTLPGQRLHLMQVDSVQRWMEDLKLMTECECMCVLQAKPISLEEDAQGDVQALVRKIDASDNIYTTESTTGNLFSLTQEGAPLCRIIAKEGGVVALFKVCRQDSFRCLYPQALRTLASICCVEEGVHQLEKVDGVLCLADILTDNSHSEATRAEAAAVVAQVTSPHLPVTQHLSS
B2: human 6His-tagged full-length Insc (residues 1-532) (natural protein)
chain: MMALPGGRHLDSVTLPGQRLHLMQVDSVQRWMEDLKLMTECECMCVLQAKPISLEEDAQGDLILAGGPGPGDPLQLLLKRGWVISTELRRIGQKLAQDRWARVHSMSVRLTCHARSMVSEYSAVSRNSLKEMGEIEKLLMEKCSELSAVTERCLQVENEHVLKSMKACVSETLSMLGQHFGQLLELALTREVQALVRKIDASDNIYTTESTTGNLFSLTQEGAPLCRIIAKEGGVVALFKVCRQDSFRCLYPQALRTLASICCVEEGVHQLEKVDGVLCLADILTDNSHSEATRAEAAAVVAQVTSPHLPVTQHLSSFLESMEEIVTALVKLCQEASSGEVFLLASAALANITFFDTMACEMLLQLNAIRVLLEACSDKQRVDTPYTRDQIVTILANMSVLEQCASDIIQENGVQLIMGMLSEKPRSGTPAEVAACERVQQKAAVTLARLSRDPDVAREAVRLSCMSRLIELCRSPSERNSSDAVLVACLAALRRLAGVCPEGLQDSDFQQLVQPRLVDSFLLCSNMEESFV

How the values were obtained:
[1] = biological target: human LGN TPR domain, residues 1-350, FLAG-tagged (and a GFP-tagged copy) (human); test: co-IP; HEK293T co-transfected with FLAG-LGN^TPR, GFP-LGN^TPR and GFP-Insc^ASYM-ΔαB; anti-FLAG M2 sepharose beads, modified JS buffer, 1 h at 4 °C
[2] = biological target: human LGN TPR domain, fragment 15-350 (human); test: SEC; purified co-expressed complexes on a size-exclusion column with globular markers, Coomassie SDS-PAGE of peak fractions

Chain of human LGN TPR domain, residues 1-350, FLAG-tagged (and a GFP-tagged copy) (human) (P81274 1-350): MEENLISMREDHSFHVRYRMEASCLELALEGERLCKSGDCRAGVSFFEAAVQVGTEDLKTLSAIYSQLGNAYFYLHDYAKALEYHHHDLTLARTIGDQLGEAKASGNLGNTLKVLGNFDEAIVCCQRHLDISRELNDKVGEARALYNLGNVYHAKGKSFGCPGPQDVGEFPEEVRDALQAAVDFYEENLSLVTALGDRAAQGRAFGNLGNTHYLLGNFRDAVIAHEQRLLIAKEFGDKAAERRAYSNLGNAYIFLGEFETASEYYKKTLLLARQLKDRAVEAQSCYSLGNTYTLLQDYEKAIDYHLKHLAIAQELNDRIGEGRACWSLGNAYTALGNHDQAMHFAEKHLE

Binder | stoichiometry N (Insc per LGN (1:1)) [1] | stoichiometry N (Insc per LGN (2:2)) [2]
B1 | 1 | 
B2 |  | 1
